Assays:
Experiment in all cases: cell-based or functional assay
[1] = biological target: HIV-1 Env of pseudovirus 1006_11_C3_1601 (HIV-1)
[2] = biological target: HIV-1 Env of pseudovirus 1012_11_TC21_3257 (HIV-1)
[3] = biological target: HIV-1 Env of pseudovirus 1054_07_TC4_1499 (HIV-1)
[4] = biological target: HIV-1 Env of pseudovirus 1056_10_TA11_1826 (HIV-1)
[5] = biological target: HIV-1 Env of pseudovirus 231965.c01 (HIV-1)
[6] = biological target: HIV-1 Env of pseudovirus 231966.c02 (HIV-1)
[7] = biological target: HIV-1 Env of pseudovirus 249M B10 (HIV-1)
[8] = biological target: HIV-1 Env of pseudovirus 3301.v1.c24 (HIV-1)
[9] = biological target: HIV-1 Env of pseudovirus 6041.v3.c23 (HIV-1)
[10] = biological target: HIV-1 Env of pseudovirus 6545.v4.c1 (HIV-1)
[11] = biological target: HIV-1 Env of pseudovirus 6811.v7.c18 (HIV-1)
[12] = biological target: HIV-1 Env of pseudovirus 7030102001E5(Rev-) (HIV-1)
[13] = biological target: HIV-1 Env of pseudovirus 89-F1_2_25 (HIV-1)
[14] = biological target: HIV-1 Env of pseudovirus AC10.0.29 (HIV-1)
[15] = biological target: HIV-1 Env of pseudovirus BJOX028000.10.3 (HIV-1)
[16] = biological target: HIV-1 Env of pseudovirus CNE17 (HIV-1)
[17] = biological target: HIV-1 Env of pseudovirus CNE19 (HIV-1)
[18] = biological target: HIV-1 Env of pseudovirus CNE20 (HIV-1)
[19] = biological target: HIV-1 Env of pseudovirus CNE21 (HIV-1)
[20] = biological target: HIV-1 Env of pseudovirus CNE52 (HIV-1)
[21] = biological target: HIV-1 Env of pseudovirus Ce1086_B2 (HIV-1)
[22] = biological target: HIV-1 Env of pseudovirus Ce1176_A3 (HIV-1)
[23] = biological target: HIV-1 Env of pseudovirus Ce703010054_2A2 (HIV-1)
[24] = biological target: HIV-1 Env of pseudovirus Ce704809221_1B3 (HIV-1)
[25] = biological target: HIV-1 Env of pseudovirus Du172.17 (HIV-1)
[26] = biological target: HIV-1 Env of pseudovirus P0402_c2_11 (HIV-1)
[27] = biological target: HIV-1 Env of pseudovirus Q842.d12 (HIV-1)
[28] = biological target: HIV-1 Env of pseudovirus R2184.c04 (HIV-1)
[29] = biological target: HIV-1 Env of pseudovirus SC05_8C11_2344 (HIV-1)
[30] = biological target: HIV-1 Env of pseudovirus T250-4 (HIV-1)
[31] = biological target: HIV-1 Env of pseudovirus T251-18 (HIV-1)
[32] = biological target: HIV-1 Env of pseudovirus T278-50 (HIV-1)
[33] = biological target: HIV-1 Env of pseudovirus TRJO4551.58 (HIV-1)
[34] = biological target: HIV-1 Env of pseudovirus X1254_c3 (HIV-1)
[35] = biological target: HIV-1 Env of pseudovirus ZM135M.PL10a (HIV-1)
[36] = biological target: HIV-1 Env of pseudovirus ZM233M.PB6 (HIV-1)
[37] = biological target: HIV-1 Env of pseudovirus ZM53M.PB12 (HIV-1)

In the case of N49P6 (antibody), the IC50 [1] is reported as 0.068 µg/mL, the IC80 [1] is reported as 0.209 µg/mL and the MPI [1] is reported as 100. For the same substance, the IC50 [2] was 0.137 µg/mL, the IC80 [2] was 0.502 µg/mL and the MPI [2] was 100. The IC50 [3] was 0.624 µg/mL, the IC80 [3] was 2.85 µg/mL and the MPI [3] was 100. It also gave an IC50 [4] of 0.209 µg/mL, an IC80 [4] of 0.606 µg/mL and an MPI [4] of 100. For the same substance, the IC50 [5] was 9.24 µg/mL, the IC80 [5] was 39.4 µg/mL and the MPI [5] was 87. It also gave an IC50 [6] of 0.339 µg/mL, an IC80 [6] of 1.62 µg/mL and an MPI [6] of 100. For the same substance, the IC50 [7] was 0.122 µg/mL, the IC80 [7] was 0.549 µg/mL and the MPI [7] was 100. For the same substance, the IC50 [8] was 0.054 µg/mL, the IC80 [8] was 0.149 µg/mL and the MPI [8] was 100. The IC50 [9] was 5.53 µg/mL, the IC80 [9] was 43.2 µg/mL and the MPI [9] was 88. It also gave an IC50 [10] of 24.5 µg/mL, an IC80 [10] greater than 50 µg/mL and an MPI [10] of 76. For the same substance, the IC50 [11] was 0.238 µg/mL, the IC80 [11] was 1.01 µg/mL and the MPI [11] was 100. The IC50 [12] was 0.354 µg/mL, the IC80 [12] was 1.17 µg/mL and the MPI [12] was 100. It also gave an IC50 [13] of 33.6 µg/mL, an IC80 [13] greater than 50 µg/mL and an MPI [13] of 61. It also gave an IC50 [14] of 32.3 µg/mL, an IC80 [14] greater than 50 µg/mL and an MPI [14] of 67. For the same substance, the IC50 [15] was 6.68 µg/mL, the IC80 [15] was greater than 50 µg/mL and the MPI [15] was 77. The IC50 [16] was 0.34 µg/mL, the IC80 [16] was 2.1 µg/mL and the MPI [16] was 100. For the same substance, the IC50 [17] was 0.044 µg/mL, the IC80 [17] was 0.156 µg/mL and the MPI [17] was 100. For the same substance, the IC50 [18] was 2.74 µg/mL, the IC80 [18] was 15.6 µg/mL and the MPI [18] was 95. For the same substance, the IC50 [19] was 0.832 µg/mL, the IC80 [19] was 6.52 µg/mL and the MPI [19] was 99. It also gave an IC50 [20] of 0.028 µg/mL, an IC80 [20] of 0.095 µg/mL and an MPI [20] of 100. It also gave an IC50 [21] of 0.581 µg/mL, an IC80 [21] of 4.09 µg/mL and an MPI [21] of 98. The IC50 [22] was 0.594 µg/mL, the IC80 [22] was 2.11 µg/mL and the MPI [22] was 100. For the same substance, the IC50 [23] was 0.245 µg/mL, the IC80 [23] was 0.841 µg/mL and the MPI [23] was 100. It also gave an IC50 [24] of 1.67 µg/mL, an IC80 [24] of 12.8 µg/mL and an MPI [24] of 97. It also gave an IC50 [25] of 20.8 µg/mL, an IC80 [25] greater than 50 µg/mL and an MPI [25] of 74. It also gave an IC50 [26] of 3.54 µg/mL, an IC80 [26] of 19 µg/mL and an MPI [26] of 99. The IC50 [27] was 0.034 µg/mL, the IC80 [27] was 0.091 µg/mL and the MPI [27] was 100. For the same substance, the IC50 [28] was 0.028 µg/mL, the IC80 [28] was 0.077 µg/mL and the MPI [28] was 100. For the same substance, the IC50 [29] was 0.266 µg/mL, the IC80 [29] was 0.911 µg/mL and the MPI [29] was 100. It also gave an IC50 [30] of 21.9 µg/mL, an IC80 [30] greater than 50 µg/mL and an MPI [30] of 68. For the same substance, the IC50 [31] was 0.344 µg/mL, the IC80 [31] was 0.929 µg/mL and the MPI [31] was 100. For the same substance, the IC50 [32] was 25.7 µg/mL, the IC80 [32] was greater than 50 µg/mL and the MPI [32] was 67. For the same substance, the IC50 [33] was 0.255 µg/mL, the IC80 [33] was 0.874 µg/mL and the MPI [33] was 100. For the same substance, the IC50 [34] was 15.7 µg/mL, the IC80 [34] was 34.2 µg/mL and the MPI [34] was 91. For the same substance, the IC50 [35] was 0.494 µg/mL, the IC80 [35] was 1.77 µg/mL and the MPI [35] was 99. The IC50 [36] was 1.23 µg/mL, the IC80 [36] was 4 µg/mL and the MPI [36] was 99. The IC50 [37] was 0.538 µg/mL, the IC80 [37] was 1.71 µg/mL and the MPI [37] was 100.

In the case of PGT151 (antibody), the IC50 [1] is reported as 2.89 µg/mL, the IC80 [1] is reported as greater than 50 µg/mL and the IC50 [2] is reported as greater than 50 µg/mL. The IC80 [2] was greater than 50 µg/mL, the IC50 [3] was 0.008 µg/mL and the IC80 [3] was 0.032 µg/mL. For the same substance, the IC50 [4] was 0.008 µg/mL, the IC80 [4] was 0.048 µg/mL and the IC50, titer in TZM.bl cells [5] was less than 0.001 µg/mL. For the same substance, the IC80, titer in TZM.bl cells [5] was 0.012 µg/mL, the IC50, titer in TZM.bl cells [6] was 0.025 µg/mL and the IC80, titer in TZM.bl cells [6] was 0.183 µg/mL. It also gave an IC50 [7] of 0.007 µg/mL, an IC80 [7] of 0.023 µg/mL and an IC50, titer in TZM.bl cells [8] of 0.002 µg/mL. The IC80, titer in TZM.bl cells [8] was 0.019 µg/mL, the IC50, titer in TZM.bl cells [9] was 0.004 µg/mL and the IC80, titer in TZM.bl cells [9] was 0.024 µg/mL. It also gave an IC50, titer in TZM.bl cells [10] of 0.004 µg/mL, an IC80, titer in TZM.bl cells [10] of 0.026 µg/mL and an IC50, titer in TZM.bl cells [11] greater than 50 µg/mL. For the same substance, the IC80, titer in TZM.bl cells [11] was greater than 50 µg/mL, the IC50 [12] was 0.001 µg/mL and the IC80 [12] was 0.011 µg/mL. For the same substance, the IC50, titer in TZM.bl cells [13] was 22.9 µg/mL, the IC80, titer in TZM.bl cells [13] was greater than 50 µg/mL and the IC50 [14] was 0.007 µg/mL. It also gave an IC80 [14] of 0.023 µg/mL, an IC50, titer in TZM.bl cells [15] greater than 50 µg/mL and an IC80, titer in TZM.bl cells [15] greater than 50 µg/mL. It also gave an IC50 [16] of 0.093 µg/mL, an IC80 [16] greater than 50 µg/mL and an IC50 [17] of 0.014 µg/mL. For the same substance, the IC80 [17] was greater than 50 µg/mL, the IC50 [18] was greater than 50 µg/mL and the IC80 [18] was greater than 50 µg/mL. The IC50 [19] was 0.004 µg/mL, the IC80 [19] was 0.012 µg/mL and the IC50 [20] was 0.004 µg/mL. The IC80 [20] was 0.017 µg/mL, the IC50 [21] was 2.65 µg/mL and the IC80 [21] was greater than 50 µg/mL. The IC50 [22] was 0.006 µg/mL, the IC80 [22] was 0.018 µg/mL and the IC50 [23] was 0.013 µg/mL. For the same substance, the IC80 [23] was 0.075 µg/mL, the IC50 [24] was greater than 50 µg/mL and the IC80 [24] was greater than 50 µg/mL. The IC50 [25] was 0.003 µg/mL, the IC80 [25] was 0.013 µg/mL and the IC50, titer in TZM.bl cells [26] was less than 0.001 µg/mL. For the same substance, the IC80, titer in TZM.bl cells [26] was 0.004 µg/mL, the IC50 [27] was 0.001 µg/mL and the IC80 [27] was 0.014 µg/mL. It also gave an IC50, titer in TZM.bl cells [28] greater than 50 µg/mL, an IC80, titer in TZM.bl cells [28] greater than 50 µg/mL and an IC50 [29] of 0.06 µg/mL. It also gave an IC80 [29] greater than 50 µg/mL, an IC50 [30] of 0.005 µg/mL and an IC80 [30] of 0.014 µg/mL. For the same substance, the IC50, titer in TZM.bl cells [31] was 0.327 µg/mL, the IC80, titer in TZM.bl cells [31] was greater than 50 µg/mL and the IC50, titer in TZM.bl cells [32] was 0.13 µg/mL. It also gave an IC80, titer in TZM.bl cells [32] greater than 50 µg/mL, an IC50 [33] of 0.496 µg/mL and an IC80 [33] of 4.22 µg/mL. It also gave an IC50, titer in TZM.bl cells [34] of 0.309 µg/mL, an IC80, titer in TZM.bl cells [34] greater than 50 µg/mL and an IC50 [35] greater than 50 µg/mL. The IC80 [35] was greater than 50 µg/mL, the IC50 [36] was 0.027 µg/mL and the IC80 [36] was 5.16 µg/mL. For the same substance, the IC50 [37] was greater than 50 µg/mL and the IC80 [37] was greater than 50 µg/mL.
